Results reported in US20040254341.

Molecular target: APP695 with C-terminal dilysine and the mutation KM-DA594-597 to SYEA594-597, expressed in HEK 293 derivative cells, P05067
Sequence (P05067 whole entry, looked up, change not shown, tested part not stated): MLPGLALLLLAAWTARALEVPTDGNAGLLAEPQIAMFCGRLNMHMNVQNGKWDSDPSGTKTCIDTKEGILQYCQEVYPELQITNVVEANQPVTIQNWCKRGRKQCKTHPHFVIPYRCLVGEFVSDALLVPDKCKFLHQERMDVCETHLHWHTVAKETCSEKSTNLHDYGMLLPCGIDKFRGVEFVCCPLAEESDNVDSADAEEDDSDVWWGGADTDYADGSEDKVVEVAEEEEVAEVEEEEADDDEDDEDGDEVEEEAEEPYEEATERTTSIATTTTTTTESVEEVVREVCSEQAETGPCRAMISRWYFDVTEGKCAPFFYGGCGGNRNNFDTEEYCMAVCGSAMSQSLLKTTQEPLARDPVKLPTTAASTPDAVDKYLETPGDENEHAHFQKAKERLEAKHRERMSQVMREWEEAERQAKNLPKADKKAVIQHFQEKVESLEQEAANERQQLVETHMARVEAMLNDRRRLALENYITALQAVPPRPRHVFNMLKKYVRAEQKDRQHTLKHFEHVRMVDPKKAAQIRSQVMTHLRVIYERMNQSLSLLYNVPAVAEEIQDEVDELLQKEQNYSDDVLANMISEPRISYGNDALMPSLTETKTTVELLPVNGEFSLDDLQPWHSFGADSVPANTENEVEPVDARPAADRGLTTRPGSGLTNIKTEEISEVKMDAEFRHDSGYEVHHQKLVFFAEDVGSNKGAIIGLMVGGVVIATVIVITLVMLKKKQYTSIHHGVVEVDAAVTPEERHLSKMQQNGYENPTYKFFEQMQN

B1: Hu-Asp2 expressed in a stable HEK-293 derivative cell line that expresses higher levels of Hu-Asp2 (protein)
chain: ETDEEPEEPGRRGSFVEMVDNLRGKSGQGYYVEMTVGSPPQTLNILVDTGSSNFAVGAAPHPFLHRYYQRQLSSTYRDLRKGVYVPYTQGKWEGELGTDLVSIPHGPNVTVRANIAAITESDKFFINGSNWEGILGLAYAEIARPDDSLEPFFDSLVKQTHVPNLFSLHLCGAGFPLNQSEVLASVGGSMIIGGIDHSLYTGSLWYTPIRREWYYEVIIVRVEINGQDLKMDCKEYNYDKSIVDSGTTNLRLPKKVFEAAVKSIKAASSTEKFPDGFWLGEQLVCWQAGTTPWNIFPVISLYLMGEVTNQSFRITILPQQYLRPVEDVATSQDDCYKFAISQSSTGTVMGAVIMEGFYVVFDRARKRIGFAVSACHVHDEFRTAAVEGPFVTLDMEDCGYNIPQTDESTLMTIAYVMAAICALFMLPLCLMVCQWRCLRCLRQQHDDFADDISLLK
In the case of B1, the “β-secretase cleavage product CTF-99, Western blot with antibody C8” value is reported as “both mutant APP variants were proficiently cleaved by Asp2”.
